{
  "source": "paper PMC10213376",
  "about": "(Redox Biology, 2023)",
  "proteins": {"B1": {"name": "Human catalase (CAT) (enzyme)", "chain": "MADSRDPASDQMQHWKEQRAAQKADVLTTGAGNPVGDKLNVITVGPRGPLLVQDVVFTDEMAHFDRERIPERVVHAKGAGAFGYFEVTHDITKYSKAKVFEHIGKKTPIAVRFSTVAGESGSADTVRDPRGFAVKFYTEDGNWDLVGNNTPIFFIRDPILFPSFIHSQKRNPQTHLKDPDMVWDFWSLRPESLHQVSFLFSDRGIPDGHRHMNGYGSHTFKLVNANGEAVYCKFHYKTDQGIKNLSVEDAARLSQEDPDYGIRDLFNAIATGKYPSWTFYIQVMTFNQAETFPFNPFDLTKVWPHKDYPLIPVGKLVLNRNPVNYFAEVEQIAFDPSNMPPGIEASPDKMLQGRLFAYPDTHRHRLGPNYLHIPVNCPYRARVANYQRDGPMCMQDNQGGAPNYYPNSFGAPEQQPSALEHSIQYSGEVRRFNTANDDNVTQVRAFYVNVLNEEQRKRLCENIAGHLKDAQIFIQKKAVKNFTEVHPDYGSHIQALLDKYNAEKPKNAIHTFVQSGSHLAAREKANL"}},
  "molecular_target": "the molecule itself",
  "test": "crystal structure",
  "data": [
    {"protein": "B1", "values": [
      {"measurement": "stoichiometry N", "value": 4}
    ]}
  ]
}
